The subject of data set [1] is AZ. The conditions noted are these: ref [20], [46]–[48]; cited from earlier work. From the text:
Another protein that regulates ODC by binding to AZ is called antizyme inhibitor (AZI). AZI is homologous to ODC, but lacks ODC enzymatic activity, [43]–[46]. […] AZI can bind to all isoforms of mammalian AZ [32], [42].

The subject of data set [2] is human AZI. Briefly: AZ peptide-AZI complex size distribution by analytical ultracentrifugation. Format: binding. The conditions noted are these: Table 2. Here is the method: A Beckman Optima XL-A analytical ultracentrifuge was used for sedimentation velocity experiments. Reference and sample sectors in the centerpiece were filled with buffer (400 µl) and sample protein (0.3 mg/mL, 380 µl), respectively, and then the cell was built up in an An-50 Ti rotor. Sedimentation velocity experiments were performed at 20°C with a rotor speed of 42,000 rpm. The data were traced by absorbance at 280 nm in continuous mode, with a time interval of 420 s and a step size of 0.002 cm. A total of 20–30 scans at different time points were collected and fitted to a continuous size distribution model using the program SEDFIT [54]–[55]. All size distributions were calculated at 0.1 to 20 S with a confidence level of p = 0.95 and a resolution N of 200.
In order to determine the dissociation constants (K d) of the AZ peptide-ODC and AZ peptide-AZI complexes, sedimentation velocity experiments were performed at different concentrations of AZ or AZ peptide with a constant concentration of human ODC or AZI. The K d values of the AZ peptide-ODC and AZ peptide-AZI complexes were calculated by a global fitting of all sedimentation data in the AB hetero-association model in the SEDPHAT program [56]–[57]. The partial specific volumes of the proteins, the solvent densities, and the viscosity were calculated by the SEDNTERP program. […]

The subject of data set [3] is AZ peptide-inhibited ODC. Briefly: Rescue of AZ-inhibited ODC enzyme activity by AZI. Format: biochemical, human. As to conditions: Figure 4. As for the experimental part: Figure 4 Relative ODC enzyme activities in the presence of AZ and AZI. ODC enzymes equilibrated with equimolar AZI were inhibited by various concentrations of AZ peptides. The concentrations of AZI and ODC were fixed at 18.9 µg/mL and 20 µg/mL, respectively (the ratio of AZI monomer versus ODC monomer was fixed at 1). Panels A–H show the inhibition curves of ODC for each AZ peptide in the absence (closed circles) and in the presence (open circles) of AZI.
For enzyme rescue experiments with AZI, the ODC enzyme was first pre-incubated with AZ at a molar ratio of 3.5 AZ monomers to 1 ODC monomer to achieve 80% enzyme inhibition. The inhibited ODC activity was recovered by increasing the AZI concentration.

Data set [4] relates to ODC degradation. The conditions noted are these: cited from earlier work. From the text:
(§1) There are at least four AZ isozymes with different binding affinities for ODC [31]–[32]. Isoform 1, AZ-1, is present in all tissues and is the major isoform that participates in ODC degradation. […] The C-terminal region of AZ-1 interacts with ODC to inhibit enzyme activity, and the N-terminal region of AZ-1 controls the degradation of ODC [34]–[36]. AZ-2 has a distribution similar to that of AZ-1 in all of the tissues and cells examined thus far, but its expr ...

The subject of data set [5] is ODC. As to conditions: cited from earlier work.
Description: as §1

B1: Antizyme inhibitor (protein)
chain: MKGFIDDANYSVGLLDEGTNLGNVIDNYVYEHTLTGKNAFFVGDLGKIVKKHSQWQNVVAQIKPFYTVKCNSAPAVLEILAALGTGFACSSKNEMALVQELGVPPENIIYISPCKQVSQIKYAAKVGVNILTCDNEIELKKIARNHPNAKVLLHIATEDNIGGEEGNMKFGTTLKNCRHLLECAKELDVQIIGVKFHVSSACKESQVYVHALSDARCVFDMAGEIGFTMNMLDIGGGFTGTEFQLEEVNHVISPLLDIYFPEGSGVKIISEPGSYYVSSAFTLAVNIIAKKVVENDKFPSGVEKTGSDEPAFMYYMNDGVYGSFASKLSEDLNTIPEVHKKYKEDEPLFTSSLWGPSCDELDQIVESCLLPELNVGDWLIFDNMGADSFHEPSAFNDFQRPAIYYMMSFSDWYEMQDAGITSDSMMKNFFFVPSCIQLSQEDSFSAEA
modifications: left off: His6, N-terminal, state not stated
Regarding B1, in data set [1], the “Affinity of AZI for AZ” value is “binds to AZ with a higher affinity than ODC”. Besides, in data set [2], the “Affinity of AZI for AZ peptides versus ODC (in words)” value is given as “can bind to AZ peptides with a higher affinity than ODC”. The “Rescue of ODC enzyme activity by AZI (in words)” value in data set [3] is recorded as “can rescue AZ peptide-inhibited ODC enzyme activity”.

B2: AZ-2: AZ isozyme 2, distribution similar to AZ-1, lower expression level (protein, UniProt O95190 1-189, looked up)
Ornithine decarboxylase …: MINTQDSSILPLSNCPQLQCCRHIVPGPLWCSDAPHPLSKIPGGRGGGRDPSLSALIYKDEKLTVTQDLPVNDGKPHIVHFQYEVTEVKVSSWDAVLSSQSLFVEIPDGLLADGSKEGLLALLEFAEEKMKVNYVFICFRKGREDRAPLLKTFSFLGFEIVRPGHPCVPSRPDVMFMVYPLDQNLSDED
B2: the “ODC degradation, AZ-2” value in data set [4] (ref [38]–[39]) is on record as “does not promote ODC degradation”. In addition, the “Inhibition of ODC activity, AZ-2” value in data set [5] (ref [38]–[39]) was “can inhibit ODC enzyme activity”.

B3: AZ-3: AZ isozyme 3, germ cells of testes (protein, UniProt Q9UMX2 1-235, looked up)
Ornithine decarboxylase …: MPCKRCRPSVYSLSYIKRGKTRNYLYPIWSPYAYYLYCYKYRITLREKMLPRCYKSITYKEEEDLTLQPRSCLQCSESLVGLQEGKSTEQGNHDQLKELYSAGNLTVLATDPLLHQDPVQLDFHFRLTSQTSAHWHGLLCDRRLFLDIPYQALDQGNRESLTATLEYVEEKTNVDSVFVNFQNDRNDRGALLRAFSYMGFEVVRPDHPALPPLDNVIFMVYPLERDVGHLPSEPP
With B3, the “ODC degradation, AZ-3” value in data set [4] (ref [41]) was “fails to stimulate ODC degradation”. In data set [5] (ref [41]), the “Inhibition of ODC activity, AZ-3” value is “poorly inhibits ODC activity”.
